Assay results as given in the supplement of paper PMC9170038.

Test system: MS2 coat protein
Assay: apparent KD of MS2 coat protein; designed switch direction (-1 OFF switch, 1 ON switch): -1; higher = weaker reporter binding
How it was run: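 Designed RNA switches with common flanks were transcribed on Illumina chips by stalled E. coli RNA polymerase and titrated with SNAP-549-labelled MS2 coat protein, from 0.7 or 1.5 nM doubling to 3 µM, in Tris-HCl pH 7.5 buffer with KCl, MgCl2, BSA, DTT, tRNA and Tween-20. Steps lasted 0.8–1.5 h (lowest) to 10–20 min (highest). Titrations ran without input, with 200 uM small-molecule ligand, or with an oligonucleotide input. Normalised cluster fluorescence was curve-fitted, and apparent KD is the per-design median over clusters.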

[1] = input ligand: microRNA oligo, concentration not stated
[2] = Eterna round: R95, input ligand: microRNA oligo, concentration not stated
[3] = Eterna round: R95, input ligand: FMN 200 uM
[4] = Eterna round: R95, input ligand: none

Sequence	apparent KD of MS2 coat protein (input ligand: FMN 200 uM) [nM]	apparent KD of MS2 coat protein (input ligand: none) [nM]	apparent KD of MS2 coat protein [1] [nM]	apparent KD of MS2 coat protein [2] [nM]	apparent KD of MS2 coat protein [3] [nM]	apparent KD of MS2 coat protein [4] [nM]
GUCCUGGACUAUCACAAGCACAUGAGGAUCACCCAUGUCAUGGGUGGGUCACUAAGUACGGCUACUGCUCGUCUUAU [Cac Sensor turn off var1 sub8] (Eterna round: R97, puzzle: Sensor, turn-off variant 1)	436	495	–	–	–	–
AUAUACGGAGGAUAUACUUGAGGAUCACCCAAGUGGGAUCCCGUUUGGGCGGUAAAUAGUAGAAGGCCGACCCA [jl-ex3-4.41 ViennaUCT mod] (Eterna round: R97, puzzle: Exclusion 3)	31.3	29	–	–	–	–
UAAUUAGACUCAGGAUAUUCGAAGAGAAGAGAGGAAGAAGGGAGGUGACAUGAGGAUCACCCAUGUAUGUGUUGUGUCCAUGUG [Exclusion NG 1 S1] (Eterna round: R96, puzzle: Exclusion NG 1)	326	617	553	–	–	–
AAAAGGCAGGGAGGAUAUGCUUACCUGGGUCGUCUUCAAACAUGAGGAUCACCCAUGUAGUCGACGCAGAAGGCCCUCAAAGCC [Mat - Exclusion NG 2 - Mod of JL - D58] (Eterna round: R96, puzzle: Exclusion NG 2)	39.6	22.7	21.2	–	–	–
CUGAGCUGAGGAUAUACAUGAGGAUCACCCAUGUGAAGUAGCUUGCGUACAGGCAGAUGUAGAAGGCAGUUCGG [JL-ex3-3.31 Brourd mod] (puzzle: Exclusion 3)	–	–	–	34.6	–	–
AACAAUAAGGAGGAUAUCGUAUCGGAAACGAUACGAGAAGGCUUAACAUGAGGAUCACCCAUGUUCUUCAAUAA [Fiskers Ex 6 - 24] (puzzle: Exclusion 6)	–	–	–	17.1	19.1	17.7
ACAAGCUUGUAAUGAUUGAACAUGAGGAUCACCCAUGUAAAUGGAAGAACCAAUUGGAUAAGAUAAACUCGUCUUAU [JR_STOV1_Sub004] (Eterna round: R97, puzzle: Sensor, turn-off variant 1)	107	114	–	–	–	–
UAGUAUAUCUAUGGGAGUAACAUGAGGAUCACCCAUGUAUGUCUUGUUUUUUGUUCGUCAUAGGCCGGUUGAACGGU [JR_SV3TOV1_Sub027] (puzzle: Sensor v3, turn-off variant 1)	–	–	–	27.7	23.3	26.5
CGGUGCUGAGGAUAUACAUGAGGAUCACCCAUGUGUUCCUGCUAGCGUACUGGCAGAUGUAGAAGGCGGUACUG [JL-ex3-3.44 Brourd mod] (puzzle: Exclusion 3)	–	–	–	20.8	84	26.7
GAUCCACAUGAGGAUCACCCAUGUGAGGAUAUGAUACUAUGUACUUCGGUACAUAGUAUCAGAAGGCAUAUUGA [Ex1-3: 46] (puzzle: Exclusion 1)	–	–	–	36.3	–	–
UCGAGUGCUGAGGAUAUCUGCGAGUAAAGCUCAAGAGAAGGCAGUACAUGAGGAUCACCCAUGUGGAGCCUGUG [EX6 B.27] (Eterna round: R97, puzzle: Exclusion 6)	86.7	21.6	–	–	–	–
AAAAUACGCACAGGAUAUCGAUACAUGAGGAUCACCCAUGUAACAUGGACUGGUCAGCAGAAAAGCGAGAAGGGUGCUGACGAC [Lediaroren] (Eterna round: R96, puzzle: Exclusion NG 2)	334	55.6	90.3	–	–	–
UUCCUACAUGAGGAUCACCCAUGUGAGGAUAUGCAUCGUAUUAUUCUCGUAUGUAGUAGCAGAAGGCGCAUUGG [Starry Exclusion 1.1] (Eterna round: R96, puzzle: Exclusion 1)	82.5	29	15.9	–	–	–
AUGUGCACGCUGCGGUCCUACAUGAGGAUCACCCAUGUGGUCUGGUGGCGUGGGUCGCCGGACUUGGCUCGUCUUGG [salish99_S_TOV1_R5_031] (Eterna round: R97, puzzle: Sensor, turn-off variant 1)	15.6	15.9	–	–	–	–
CUGAGGUAGCGGUCCUAUGACAUGAGGAUCACCCAUGUACCUUGCUUCGAGCUUUUAGCUCGUCUUAUGAUUCUCGG [Mat - Sensor v3 - turn-off var 1 - JL Mod - D36] (puzzle: Sensor v3, turn-off variant 1)	–	–	–	502	423	522
UAUUACUCAGGAUAUAUGAUGUGAAACAUGAGGAUCACCCAUGUAAUAUUAUGGAUGUAAAUAGAAGGGAGAUAAU [Mat - Exclusion 5 - JL mod - D21] (puzzle: Exclusion 5)	–	–	–	51.1	37.1	56.9
CCCUCACAUGAGGAUCACCCAUGUCAGGAUAUUCGACGGUAAAUUGGCCGUCUUAAAGGAAGAAGGGACGUAAC [Lesoorxe] (puzzle: Exclusion 1)	–	–	–	13	–	–

Sequence	apparent KD of MS2 coat protein (input ligand: FMN 200 uM) [nM]	apparent KD of MS2 coat protein (input ligand: none) [nM]	apparent KD of MS2 coat protein [1] [nM]	apparent KD of MS2 coat protein [2] [nM]	apparent KD of MS2 coat protein [3] [nM]	apparent KD of MS2 coat protein [4] [nM]
UAAUUGAUUAAUAAAUUAUACAUGAGGAUCACCCAUGUAGAUCCUACGUGCCAUUUAAGUAGCUCGUCUUAUUAUUA [Sensor-V1 #64] (Eterna round: R97, puzzle: Sensor, turn-off variant 1)	142	228	–	–	–	–
AAAUACAAGCAGAGAUCCUACAUGAGGAUCACCCAUGUGCUCGUCUUAUAAAGUACUAUCACGAAAGUGAUAGUACA [Sensor 3, v1 - 17] (puzzle: Sensor v3, turn-off variant 1)	–	–	–	41.8	184	218
CGUGGACAUAACAAGCUUUACAUGAGGAUCACCCAUGUGAUCAUGCUCGUCUUAUGGUCCACGAAUUAAUUAAUUAG [Stov1/6-C2] (Eterna round: R97, puzzle: Sensor, turn-off variant 1)	19.2	18.3	–	–	–	–
GAAGAAGAGAGAAAAGAAAACAUGAGGAUCACCCAUGUGAGAAGAUGAGGGUGUAACAGGCUUUAUGCUCGUCUUAU (puzzle: Sensor v3, turn-off variant 1)	–	–	–	120	33.6	40.1
GACUGACAUGAGGAUCACCCAUGUAAGGAUAUAGGGAACGUCGUUCCGCAACCCGCGCCUAGAAGGUACAAGGU [EX1 C.11] (Eterna round: R97, puzzle: Exclusion 1)	18.2	16.1	–	–	–	–
UUUAAUUUUUUUUUUUUACAAGCUUUUUGCUCGUCUUAUACAUGAGGAUCACCCAUGUGAGUGGAAGAUAAAUUAUC [JMF 11] (puzzle: Sensor v3, turn-off variant 2)	–	–	–	15	15.1	17.9
UAUCGGGACUGAGGAUAUUCGUUCGAACGCGAAGAAGAAGGUAGUGUCAGGGACAUGAGGAUCACCCAUGUGAUUUCAGUCCCA [JL ViennaUCT Erinle mod 5] (Eterna round: R96, puzzle: Exclusion NG 1)	98.2	99	56.1	–	–	–
UGCAAGCUUAUGAGACCUCACAUGAGGAUCACCCAUGUGCUCGUCUUAUGGGCCGGCCGGCCGUUGGCCGGCCGGCC [-45.5, -68.5 kcal, A 16%] (Eterna round: R97, puzzle: Sensor, turn-off variant 1)	16.6	16.5	–	–	–	–
CGAAAGGUAGGAUAUACGAAGAAAAAGGGUAGAAGAAGAACACAUGAGGAUCACCCAUGUAGAAGGACCAAAGC [Mat - Exclusion 2 - Mod of my Tesla design - D16] (puzzle: Exclusion 2)	–	–	–	22.1	65.1	20.5
CAAAAGAGAGGAUAUACAUGAGGAUCACCCAUGUAAAGUCCGCUGGUUGUUCAGAUAUGUAGAAGGCUCGUGUC [EX3 C.5] (Eterna round: R97, puzzle: Exclusion 3)	16.9	14.4	–	–	–	–
CCGAAGCUAGGAUAUACAUGAGGAUCACCCAUGUAAUCUCAUUUACGGGUCGGGCGCAGUAGAAGGAGCAAAGU [EX3 B.17] (Eterna round: R97, puzzle: Exclusion 3)	17.5	15.6	–	–	–	–
UUUUAACAUGAGGAUCACCCAUGUGAGGAUAUCGAAAUUUAUAUUUAUAUUUAUAAAUCGAGAAGGCACAUUUU [JMF 92] (puzzle: Exclusion 1)	–	–	–	111	–	–
CCUCCACAUGAGGAUCACCCAUGUCAGGAUAUCGUGUGCGCGUUUUCGGUCUUUCGCGCGAGAAGGGACGACUG (Eterna round: R96, puzzle: Exclusion 1)	32	30.2	22.5	–	–	–
GUGUAGACAGGAUAUGCUUUGAGCAUAUGAGAGUAUGCUCUACAUGAGGAUCACCCAUGUAGAAGGGUCUACAC [LRO-Excl2-01] (puzzle: Exclusion 2)	–	–	–	11	–	–
CUUUUGUGAGGAUAUCAGUAGUAAAGAAAUAAAAUUACUACUGAGAAGGCACAUGAGGAUCACCCAUGUUCCUC [Mat - Exclusion 4 - Mod of Salish - D62] (puzzle: Exclusion 4)	–	–	–	36.2	–	–
GUUCUGACAGGAUAUACAUGAGGAUCACCCAUGUGCCCUUAGAGAUGCAAAGCAUCUCGUAGAAGGGUCUGAAC [Omei Ex3 Model Bachelor's Dilema v28] (Eterna round: R97, puzzle: Exclusion 3)	38.5	31.6	–	–	–	–
CUAUUGGCAGGAUAUGCUUUUUUUGACAUGAGGAUCACCCAUGUGAUGCAUUUUGGGUUUGCAGAAGGGCCUGAGU [JR_E5_Sub037] (puzzle: Exclusion 5)	–	–	–	64.9	–	–
